Experimental data as given in patent US20140206628A1 (University of Washington, published 2014).

Biological target: A/WSN/1933 (H1N1) hemagglutinin (Influenza A virus A/WSN/1933 (H1N1))
Assay: gel filtration

B1: HB36.3 (Asp47Ser, Ala60Val) (designed binder)
chain: MSNAMDGQQLNRLLLEWIGAWDPFGLGKDAYDVEAEAVLQAVYETESAFDLAMRIMWIYVFAFNRPIPFPHAQKLARRLLELKQAASSPLPLE
B1: binds.
